The source of these data is US20200277377A1 (WUXI BIOLOGICS SHANGHAI, published 2020).

Assay in all cases: capture ELISA, alanine scan, vs silent alanine substitutions
The target of test [1] is T1, hCTLA4_ECD.His point mutant T82 to alanine (human, UniProt P16410 36-161).
T1 construct: extracellular domain; alanine-scan mutein, HEK293F supernatant
T1 sequence (looked up): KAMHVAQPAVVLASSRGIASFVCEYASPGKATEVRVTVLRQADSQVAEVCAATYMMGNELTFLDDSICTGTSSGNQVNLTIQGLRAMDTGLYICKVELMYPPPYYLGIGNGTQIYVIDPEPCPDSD
The procedure, abridged: (§1)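 Secreted His-tagged CTLA4 point muteins in quantified supernatant were captured and probed with HRP anti-His antibody and TMB. Absorbance normalised to the mean of control mutants; epitope residues were assigned with a binding fold-change cutoff of <0.55.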

For test [2], the target named is T2, hCTLA4_ECD.His point mutant Y89 to alanine (human, UniProt P16410 36-161).
T2 construct: extracellular domain; alanine-scan mutein, HEK293F supernatant
T2 sequence (looked up): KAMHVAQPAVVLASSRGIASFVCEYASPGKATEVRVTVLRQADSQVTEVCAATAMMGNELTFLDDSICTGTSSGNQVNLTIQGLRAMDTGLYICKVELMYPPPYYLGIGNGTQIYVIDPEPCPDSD
The procedure, abridged:
as §1

The target in test [3] is T3, hCTLA4_ECD.His point mutant C103 to alanine (human, UniProt P16410 36-161).
T3 construct: extracellular domain; alanine-scan mutein, HEK293F supernatant
T3 sequence (looked up): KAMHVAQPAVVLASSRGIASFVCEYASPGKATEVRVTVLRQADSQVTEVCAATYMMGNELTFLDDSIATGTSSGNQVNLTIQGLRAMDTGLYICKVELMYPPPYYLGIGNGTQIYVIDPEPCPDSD
The procedure, abridged: as §1

The target of test [4] is T4, hCTLA4_ECD.His point mutant L126 to alanine (human, UniProt P16410 36-161).
T4 construct: extracellular domain; alanine-scan mutein, HEK293F supernatant
T4 sequence (looked up): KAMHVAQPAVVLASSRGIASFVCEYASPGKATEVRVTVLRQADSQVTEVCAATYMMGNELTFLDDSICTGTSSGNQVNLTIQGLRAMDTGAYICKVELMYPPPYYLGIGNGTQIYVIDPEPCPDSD
The gist of the method:
as §1

Test [5] addresses T5, hCTLA4_ECD.His point mutant Y127 to alanine (human, UniProt P16410 36-161).
T5 construct: extracellular domain; alanine-scan mutein, HEK293F supernatant
T5 sequence (looked up): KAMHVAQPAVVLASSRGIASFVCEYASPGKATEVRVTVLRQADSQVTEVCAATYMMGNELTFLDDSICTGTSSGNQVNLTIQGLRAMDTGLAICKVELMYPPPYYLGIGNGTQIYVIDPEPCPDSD
The procedure, abridged: as §1

For test [6], the target named is T6, hCTLA4_ECD.His point mutant K130 to alanine (human, UniProt P16410 36-161).
T6 construct: extracellular domain; alanine-scan mutein, HEK293F supernatant
T6 sequence (looked up): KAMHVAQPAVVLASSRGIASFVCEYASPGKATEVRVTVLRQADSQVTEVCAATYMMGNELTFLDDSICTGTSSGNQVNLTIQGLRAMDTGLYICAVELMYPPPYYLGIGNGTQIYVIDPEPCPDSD
The gist of the method:
as §1

In test [7] the target is T7, hCTLA4_ECD.His point mutant V131 to alanine (human, UniProt P16410 36-161).
T7 construct: extracellular domain; alanine-scan mutein, HEK293F supernatant
T7 sequence (looked up): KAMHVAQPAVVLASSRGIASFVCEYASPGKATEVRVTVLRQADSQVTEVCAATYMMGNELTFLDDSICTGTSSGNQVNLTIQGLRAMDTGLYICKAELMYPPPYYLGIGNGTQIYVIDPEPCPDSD
The procedure, abridged:
as §1

The target of test [8] is T8, hCTLA4_ECD.His point mutant Y139 to alanine (human, UniProt P16410 36-161).
T8 construct: extracellular domain; alanine-scan mutein, HEK293F supernatant
T8 sequence (looked up): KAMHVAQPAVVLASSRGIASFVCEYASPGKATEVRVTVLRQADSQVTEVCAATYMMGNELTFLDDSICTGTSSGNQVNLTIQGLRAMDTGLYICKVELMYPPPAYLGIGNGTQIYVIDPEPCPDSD
The procedure, abridged:
as §1

Test [9] concerns the target T9, hCTLA4_ECD.His point mutant G142 to alanine (human, UniProt P16410 36-161).
T9 construct: extracellular domain; alanine-scan mutein, HEK293F supernatant
T9 sequence (looked up): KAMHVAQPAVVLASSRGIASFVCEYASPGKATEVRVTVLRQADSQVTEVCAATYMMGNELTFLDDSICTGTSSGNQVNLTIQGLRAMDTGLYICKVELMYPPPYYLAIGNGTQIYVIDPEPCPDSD
The procedure, abridged: as §1

Test [10] concerns the target T10, hCTLA4_ECD.His point mutant G144 to alanine (human, UniProt P16410 36-161).
T10 construct: extracellular domain; alanine-scan mutein, HEK293F supernatant
T10 sequence (looked up): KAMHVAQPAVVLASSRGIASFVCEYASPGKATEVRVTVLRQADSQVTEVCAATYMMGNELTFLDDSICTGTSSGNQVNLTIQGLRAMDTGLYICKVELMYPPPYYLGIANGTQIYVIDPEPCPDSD
The procedure, abridged:
as §1

The target of test [11] is T11, hCTLA4_ECD.His point mutant N145 to alanine (human, UniProt P16410 36-161).
T11 construct: extracellular domain; alanine-scan mutein, HEK293F supernatant
T11 sequence (looked up): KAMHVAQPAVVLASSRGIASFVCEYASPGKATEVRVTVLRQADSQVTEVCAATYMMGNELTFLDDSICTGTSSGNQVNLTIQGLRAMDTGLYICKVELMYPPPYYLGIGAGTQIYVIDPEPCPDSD
The procedure, abridged:
as §1

In test [12] the target is T12, hCTLA4_ECD.His point mutant T147 to alanine (human, UniProt P16410 36-161).
T12 construct: extracellular domain; alanine-scan mutein, HEK293F supernatant
T12 sequence (looked up): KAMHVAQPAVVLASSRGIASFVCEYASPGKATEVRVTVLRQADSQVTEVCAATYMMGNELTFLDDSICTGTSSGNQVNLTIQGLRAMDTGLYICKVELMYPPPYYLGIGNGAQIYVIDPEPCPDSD
The procedure, abridged:
as §1

Test [13] deals with T13, hCTLA4_ECD.His point mutant Q148 to alanine (human, UniProt P16410 36-161).
T13 construct: extracellular domain; alanine-scan mutein, HEK293F supernatant
T13 sequence (looked up): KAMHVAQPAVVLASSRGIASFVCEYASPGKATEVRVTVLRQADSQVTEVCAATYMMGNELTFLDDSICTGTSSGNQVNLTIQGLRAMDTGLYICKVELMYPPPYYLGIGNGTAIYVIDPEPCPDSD
The procedure, abridged:
as §1

B1: W3162-1.146.19-z12-uAb.IgG1K (antibody, V domains shown)
VH: QVQLQESGPGLVKPSETLSLTCSVTYHTITSGYDWTWIRKPPGKGMEWIGYISYSGNTNYNPSLKSRVTISRDTSKNQFFLKLSSVTAADTAVYYCASMMVPHYYVMDAWGQGTLVTVSS
VL: DIVMTQTPLSLSVTPGQPASISCRSSQSLLNSDGNTYLYWYLQKPGQSPQLLIYLVSKLGSGVPNRFSGSGSGTDFTLKISRVEAEDVGVYYCVQGTHDPWTFGGGTKVEIK
notes: Humanized; label says IgG1K
B1: the Fold change in test [1] was determined as 0.436 fold; in test [2], 0.512 fold; in test [3], 0.544 fold; in test [4], 0.398 fold; in test [5] it was 0.529 fold; in test [6], 0.348 fold. Moreover, the Fold change was determined as 0.504 fold in test [7]; 0.431 fold in test [8]; 0.543 fold in test [9]; 0.478 fold in test [10]; 0.196 fold in [11]; 0.486 fold in test [12]. This molecule also registered a Fold change in test [13] of 0.5 fold.
